Measurements taken from paper PMC4259466 (Nature communications, 2014).

Target: Aurora B-phosphorylated WT His-PKM2 (human, UniProt P14618 1-531, phosphothreonine at 45 (by Aurora B in vitro))
Test: pull-down

Chain of Aurora B-phosphorylated WT His-PKM2 (P14618 whole entry): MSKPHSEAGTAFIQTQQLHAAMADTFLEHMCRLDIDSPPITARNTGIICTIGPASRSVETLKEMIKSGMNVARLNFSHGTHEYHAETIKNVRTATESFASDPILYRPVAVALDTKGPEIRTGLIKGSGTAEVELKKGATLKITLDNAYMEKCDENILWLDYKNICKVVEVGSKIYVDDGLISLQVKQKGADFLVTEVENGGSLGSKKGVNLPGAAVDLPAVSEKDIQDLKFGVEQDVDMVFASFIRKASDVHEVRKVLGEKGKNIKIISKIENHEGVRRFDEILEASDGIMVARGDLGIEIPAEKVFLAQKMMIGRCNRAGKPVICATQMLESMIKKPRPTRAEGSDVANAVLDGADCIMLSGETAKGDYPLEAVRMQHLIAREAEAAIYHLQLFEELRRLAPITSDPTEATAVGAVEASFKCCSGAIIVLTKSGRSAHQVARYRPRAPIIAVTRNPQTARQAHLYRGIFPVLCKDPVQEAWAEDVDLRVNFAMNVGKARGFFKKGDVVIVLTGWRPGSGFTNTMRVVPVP

binding result: binds
B1: GST-MLC2 (wild type, recombinant) (natural protein)
chain: MAPKKAKKRAGGANSNVFSMFEQTQIQEFKEAFTIMDQNRDGFIDKNDLRDTFAALGRVNVKNEEIDEMIKEAPGPINFTVFLTMFGEKLKGADPEETILNAFKVFDPEGKGVLKADYVREMLTTQAERFSKEEVDQMFAAFPPDVTGNLDYKNLVHIITHGEEKD
